Test results taken from US20160251444A1.

How the values were obtained:
[1] = target: CD20 on human cells (Daudi cells, B cells in PBMCs) (human) (UniProt P11836); test: cell-based or functional assay
[2] = target: Soluble single-chain human neonatal Fc receptor (scFcRn) (human) (UniProt P55899); test: SPR (Biacore X), scFcRn immobilized on CM5 chip, pH 6.0, two-state model; mean of 3 runs
[3] = target: Soluble single-chain human neonatal Fc receptor (scFcRn) (human) (UniProt P55899); test: SPR (Biacore X), scFcRn immobilized on CM5 chip, pH 6.0, two-state model; Run 2
[4] = target: Soluble single-chain human neonatal Fc receptor (scFcRn) (human) (UniProt P55899); test: SPR (Biacore X), scFcRn immobilized on CM5 chip, pH 6.0, two-state model; Run 1
[5] = target: Soluble single-chain human neonatal Fc receptor (scFcRn) (human) (UniProt P55899); test: SPR (Biacore X), scFcRn immobilized on CM5 chip, pH 6.0, two-state model; Run 3
[6] = target: CD22 on human cells (B cells in PBMCs, Daudi, D1-1) (human) (UniProt P20273); test: cell-based or functional assay

Soluble single-chain human neonatal Fc receptor (scFcRn) (human), sequence (P55899 24-297 limits assumed, chain 1 of 2): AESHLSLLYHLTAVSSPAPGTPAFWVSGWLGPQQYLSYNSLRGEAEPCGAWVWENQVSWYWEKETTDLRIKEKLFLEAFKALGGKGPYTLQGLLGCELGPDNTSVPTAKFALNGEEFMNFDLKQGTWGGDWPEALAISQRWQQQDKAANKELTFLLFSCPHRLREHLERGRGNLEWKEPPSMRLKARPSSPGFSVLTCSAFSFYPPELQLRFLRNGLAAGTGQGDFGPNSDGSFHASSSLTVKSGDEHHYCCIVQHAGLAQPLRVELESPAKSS
Soluble single-chain human neonatal Fc receptor (scFcRn) (human), sequence (P61769 21-119 limits assumed, chain 2 of 2, further chain): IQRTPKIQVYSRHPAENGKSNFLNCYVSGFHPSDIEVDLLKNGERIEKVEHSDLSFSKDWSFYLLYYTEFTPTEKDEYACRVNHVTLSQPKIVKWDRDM
CD20 on human cells (Daudi cells, B cells in PBMCs) (human), sequence (P11836 whole entry): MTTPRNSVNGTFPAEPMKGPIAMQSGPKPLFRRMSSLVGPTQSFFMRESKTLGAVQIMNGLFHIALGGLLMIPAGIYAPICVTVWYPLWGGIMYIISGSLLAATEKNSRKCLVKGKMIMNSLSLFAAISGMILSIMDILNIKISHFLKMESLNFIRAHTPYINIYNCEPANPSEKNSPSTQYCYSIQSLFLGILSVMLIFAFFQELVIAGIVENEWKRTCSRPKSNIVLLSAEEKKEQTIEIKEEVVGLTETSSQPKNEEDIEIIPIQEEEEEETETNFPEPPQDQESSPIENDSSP

## 20*-2b (Ck-IgG-IFNα: veltuzumab with four IFNα2b fused at the light chains) (from UniProt P01563 24-188)
[1]
  in vitro cytotoxicity in Daudi cells (MTS assay), EC50: 0.0002 nM

## 20-2b (Fc-IgG-IFNα: veltuzumab with four IFNα2b fused at the heavy chains) (from UniProt P01563 24-188)
[1]
  in vitro cytotoxicity in Daudi cells (MTS assay), EC50: 0.0002 nM

## Epratuzumab (humanized anti-CD22 IgG1) (antibody)
[2]
  Kd: 16.3 nM
[3]
  Kd: 17.9 nM
[4]
  Kd: 15 nM
[5]
  Kd: 15.8 nM

B1: F(ab')2 fragment of epratuzumab (protein, INN chains, looked up)
VH: QVQLVQSGAEVKKPGSSVKVSCKASGYTFTSYWLHWVRQAPGQGLEWIGYINPRNDYTEYNQNFKDKATITADESTNTAYMELSSLRSEDTAFYFCARRDITTFYWGQGTTVTVSS
VL: DIQLTQSPSSLSASVGDRVTMSCKSSQSVLYSANHKNYLAWYQQKPGKAPKLLIYWASTRESGVPSRFSGSGSGTDFTFTISSLQPEDIATYYCHQYLSSWTFGGGTKLEIK
modifications: F(ab')2
[6]
  surface CD22 on B cells of PBMCs after treatment, % of isotype control MFI (flow cytometry): 45 % control
